The source of these data is patent US20260274955A1 (JANUX THERAPEUTICS, published 2026).

The target in experiment [1] is anti-CD28 Fab (SEQ ID NOs: 202, 203). In words: phage ELISA, Fab on plate.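 Note: ELISA of crude clonal phage supernatants on the plate, wells preloaded with CD28 antigen or only blocking buffer, captured phage read out via HRP-linked anti-M13 antibody.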
Experimental: (§1) After panning, phage infected bacteria were plated out and colonies picked into 96 well blocks. Clonal phage was then amplified and separated from bacterial cells via centrifugation.
(§2) Clonal phage were harvested as crude supernatants and screened via standard ELISAs. […] Prior to the addition of clonal phage, wells were incubated with blocking buffer and CD28 antigen or blocking buffer alone. Without washing or aspirating, clonal phage supernatants were then added to the wells and incubated for a short time. Wells were then washed followed by detection of bound phage using a horse radish conjugated anti-M13 antibody. Clonal phage of interest were then sent for sequence analysis.
The target is the same in experiment [2]. Description: phage ELISA, Fab on plate, CD28 antigen as competitor.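 Note: wells pre-incubated with CD28 antigen in blocking buffer (reference: blocking buffer only) before adding crude clonal phage supernatant, bound phage read with HRP-coupled anti-M13 antibody.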
Experimental: as §1, §2

anti-CD28 Fab (SEQ ID NOs: 202, 203), sequence (VH, as listed by the source, chain 1 of 2): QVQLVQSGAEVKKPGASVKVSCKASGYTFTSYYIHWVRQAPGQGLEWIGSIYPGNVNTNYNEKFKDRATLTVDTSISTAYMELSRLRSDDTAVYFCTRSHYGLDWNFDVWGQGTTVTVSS
anti-CD28 Fab (SEQ ID NOs: 202, 203), sequence (VL, as listed by the source, chain 2 of 2): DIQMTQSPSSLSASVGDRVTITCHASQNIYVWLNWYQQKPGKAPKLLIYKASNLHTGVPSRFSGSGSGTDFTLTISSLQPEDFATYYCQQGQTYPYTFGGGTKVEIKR

B1: Phage-1164 (peptide)
peptide: SCADGAIWEWPWCF
Consider B1, for which the “Anti-CD28 Fab signal” value in experiment [1] worked out at 1.32. For the same molecule, the “Anti-CD28 Fab signal in the presence of CD28” value (from here on “Anti-CD28 Fab signal … of CD28”) in experiment [2] was 0.07.

B2: Phage-1113 (peptide)
peptide: SCSAGATYEWPYCF
Regarding B2, the “Anti-CD28 Fab signal” value in experiment [1] stood at 1.47. Also, the “Anti-CD28 Fab signal … of CD28” value in experiment [2] amounted to 0.06.

B3: Phage-1176 (peptide)
peptide: SCSAGATYQWPYCF
B3: the “Anti-CD28 Fab signal” value in experiment [1] was 1.26. Further, in experiment [2], the “Anti-CD28 Fab signal … of CD28” value was found to be 0.06.

B4: Phage-1117 (peptide)
peptide: TCSAGFSYKWPWCW
B4: the “Anti-CD28 Fab signal” value in experiment [1] was 1.45. The “Anti-CD28 Fab signal … of CD28” value in experiment [2] turned out to be 0.06.

B5: Phage-1114 (peptide)
peptide: TCAAGANWHWPWCF
As for B5, in experiment [1], the “Anti-CD28 Fab signal” value is 1.46. The “Anti-CD28 Fab signal … of CD28” value in experiment [2] amounted to 0.15.

B6: Phage-1123 (peptide)
peptide: TCEDGFHFSWPECF
For B6, in experiment [1], the “Anti-CD28 Fab signal” value was 1.44. Besides, the “Anti-CD28 Fab signal … of CD28” value in experiment [2] came out at 0.07.

B7: Phage-1162 (peptide)
peptide: TCAAGAAYTWPVCF
As for B7, in experiment [1], the “Anti-CD28 Fab signal” value worked out at 1.32. The “Anti-CD28 Fab signal … of CD28” value in experiment [2] was determined as 0.08.

B8: Phage-1127 (peptide)
peptide: SCAAGATYVWPMCF
With B8, the “Anti-CD28 Fab signal” value in experiment [1] was found to be 1.42. Further, the “Anti-CD28 Fab signal … of CD28” value in experiment [2] stood at 0.07.

B9: Phage-1183 (peptide)
peptide: TCAAGAVWTWPICF
In the case of B9, in experiment [1], the “Anti-CD28 Fab signal” value worked out at 1.23. The “Anti-CD28 Fab signal … of CD28” value in experiment [2] was found to be 0.05.

B10: Phage-1109 (peptide)
peptide: TCAAGASWEWPACL
As to B10, in experiment [1], the “Anti-CD28 Fab signal” value was 1.48. Further, the “Anti-CD28 Fab signal … of CD28” value in experiment [2] worked out at 0.08.

B11: Phage-1171 (peptide)
peptide: RCAAVFSYTWPPCL
B11: in experiment [1], the “Anti-CD28 Fab signal” value came to 1.29. In experiment [2], the “Anti-CD28 Fab signal … of CD28” value was 0.07.

B12: Phage-1108 (peptide)
peptide: TCAAGATYTWPTCF
In the case of B12, the “Anti-CD28 Fab signal” value in experiment [1] amounted to 1.48. The “Anti-CD28 Fab signal … of CD28” value in experiment [2] stood at 0.05.

B13: Phage-1165 (peptide)
peptide: TCAAGATYEWPSCL
With B13, in experiment [1], the “Anti-CD28 Fab signal” value stood at 1.32. For the same molecule, the “Anti-CD28 Fab signal … of CD28” value in experiment [2] turned out to be 0.09.

B14: Phage-1115 (peptide)
peptide: LCAAGATYPWPICL
For the molecule B14, the “Anti-CD28 Fab signal” value in experiment [1] came out at 1.46. The “Anti-CD28 Fab signal … of CD28” value in experiment [2] was found to be 0.08.

B15: Phage-1190 (peptide)
peptide: LCEEFFHYSWPLCL
B15: the “Anti-CD28 Fab signal” value in experiment [1] was 1.21. In addition, the “Anti-CD28 Fab signal … of CD28” value in experiment [2] amounted to 0.06.

B16: Phage-1159 (peptide)
peptide: TCSAGAHYSWPKCF
Regarding B16, the “Anti-CD28 Fab signal” value in experiment [1] amounted to 1.33. In experiment [2], the “Anti-CD28 Fab signal … of CD28” value is 0.07.

B17: Phage-1186 (peptide)
peptide: TCSAGATYSWPYCL
Regarding B17, the “Anti-CD28 Fab signal” value in experiment [1] turned out to be 1.22. Also, the “Anti-CD28 Fab signal … of CD28” value in experiment [2] amounted to 0.07.

B18: Phage-1169 (peptide)
peptide: TCAAGVPYKWPPCL
For B18, in experiment [1], the “Anti-CD28 Fab signal” value turned out to be 1.29. Moreover, the “Anti-CD28 Fab signal … of CD28” value in experiment [2] is 0.06.

B19: Phage-1185 (peptide)
peptide: TCSAGASWGWPWCL
B19: in experiment [1], the “Anti-CD28 Fab signal” value was determined as 1.22. Moreover, in experiment [2], the “Anti-CD28 Fab signal … of CD28” value was 0.07.

B20: Phage-1116 (peptide)
peptide: SCSAGALWKWPVCF
Regarding B20, in experiment [1], the “Anti-CD28 Fab signal” value was found to be 1.45. The “Anti-CD28 Fab signal … of CD28” value in experiment [2] turned out to be 0.07.

B21: Phage-1111 (peptide)
peptide: TCAAGAHYTWPTCL
In the case of B21, the “Anti-CD28 Fab signal” value in experiment [1] was 1.47. The “Anti-CD28 Fab signal … of CD28” value in experiment [2] worked out at 0.07.

B22: Phage-1168 (peptide)
peptide: QCSAGATYAWPFCL
Turning to B22, in experiment [1], the “Anti-CD28 Fab signal” value stood at 1.29. Besides, the “Anti-CD28 Fab signal … of CD28” value in experiment [2] is 0.08.

B23: Phage-1118 (peptide)
peptide: SCSAGAMYQWPLCF
Take B23: the “Anti-CD28 Fab signal” value in experiment [1] was determined as 1.44. In experiment [2], the “Anti-CD28 Fab signal … of CD28” value was determined as 0.09.

B24: Phage-1161 (peptide)
peptide: SCAEVFNYVWPFCF
Turning to B24, in experiment [1], the “Anti-CD28 Fab signal” value stood at 1.32. Also, in experiment [2], the “Anti-CD28 Fab signal … of CD28” value was found to be 0.07.

B25: Phage-1184 (peptide)
peptide: TCADGAFWQWPVCL
With B25, the “Anti-CD28 Fab signal” value in experiment [1] was found to be 1.22. Moreover, the “Anti-CD28 Fab signal … of CD28” value in experiment [2] is 0.07.

B26: Phage-1112 (peptide)
peptide: TCSAGATYKWPVCL
Take B26: the “Anti-CD28 Fab signal” value in experiment [1] was determined as 1.47. Moreover, the “Anti-CD28 Fab signal … of CD28” value in experiment [2] was found to be 0.06.

B27: Phage-1110 (peptide)
peptide: TCAAGAMYQWPECF
On to B27, for which, in experiment [1], the “Anti-CD28 Fab signal” value was found to be 1.48. In addition, the “Anti-CD28 Fab signal … of CD28” value in experiment [2] was 0.06.

B28: Phage-1180 (peptide)
peptide: TCAAGATYMWPVCL
Turning to B28, the “Anti-CD28 Fab signal” value in experiment [1] was 1.24. The “Anti-CD28 Fab signal … of CD28” value in experiment [2] was 0.07.

B29: Phage-1170 (peptide)
peptide: SCAAGATYTWPFCL
For the molecule B29, in experiment [1], the “Anti-CD28 Fab signal” value is 1.29. Moreover, in experiment [2], the “Anti-CD28 Fab signal … of CD28” value was 0.07.

B30: Phage-1181 (peptide)
peptide: SCAAGATWKWPECL
For B30, the “Anti-CD28 Fab signal” value in experiment [1] was 1.24. Besides, in experiment [2], the “Anti-CD28 Fab signal … of CD28” value came out at 0.07.

B31: Phage-1166 (peptide)
peptide: SCSAGAMYTWPTCL
Consider B31, for which, in experiment [1], the “Anti-CD28 Fab signal” value worked out at 1.31. In addition, the “Anti-CD28 Fab signal … of CD28” value in experiment [2] is 0.08.

B32: Phage-1174 (peptide)
peptide: TCTAGFSYKWPTCL
For B32, in experiment [1], the “Anti-CD28 Fab signal” value is 1.28. The “Anti-CD28 Fab signal … of CD28” value in experiment [2] was determined as 0.09.

B33: Phage-1160 (peptide)
peptide: SCAAGAHYPWPECL
Consider B33, for which, in experiment [1], the “Anti-CD28 Fab signal” value is 1.32. The “Anti-CD28 Fab signal … of CD28” value in experiment [2] came to 0.05.

B34: Phage-1178 (peptide)
peptide: NCAAGAMYSWPTCL
As for B34, the “Anti-CD28 Fab signal” value in experiment [1] is 1.25. In addition, in experiment [2], the “Anti-CD28 Fab signal … of CD28” value worked out at 0.07.

B35: Phage-1182 (peptide)
peptide: TCAAGATWLWPWCL
With B35, the “Anti-CD28 Fab signal” value in experiment [1] was found to be 1.23. The “Anti-CD28 Fab signal … of CD28” value in experiment [2] amounted to 0.07.

B36: Phage-1189 (peptide)
peptide: TCAAGANWPWPECL
On to B36, for which, in experiment [1], the “Anti-CD28 Fab signal” value was 1.21. Besides, in experiment [2], the “Anti-CD28 Fab signal … of CD28” value stood at 0.08.

B37: Phage-1126 (peptide)
peptide: WCDQFFHYKWPLCL
With B37, in experiment [1], the “Anti-CD28 Fab signal” value was 1.42. In addition, the “Anti-CD28 Fab signal … of CD28” value in experiment [2] worked out at 0.07.

B38: Phage-1163 (peptide)
peptide: SCAAGAMWEWPKCF
Regarding B38, the “Anti-CD28 Fab signal” value in experiment [1] is 1.32. In addition, the “Anti-CD28 Fab signal … of CD28” value in experiment [2] was 0.09.

B39: Phage-1128 (peptide)
peptide: TCAAGAHYSWPFCM
For the molecule B39, the “Anti-CD28 Fab signal” value in experiment [1] is 1.42. Further, the “Anti-CD28 Fab signal … of CD28” value in experiment [2] came out at 0.07.

B40: Phage-1122 (peptide)
peptide: WCGVGMDWRWPECL
With B40, the “Anti-CD28 Fab signal” value in experiment [1] came to 1.44. In addition, the “Anti-CD28 Fab signal … of CD28” value in experiment [2] is 0.16.

B41: Phage-1158 (peptide)
peptide: SCSAGATYTWPACL
In the case of B41, in experiment [1], the “Anti-CD28 Fab signal” value was found to be 1.34. Further, in experiment [2], the “Anti-CD28 Fab signal … of CD28” value stood at 0.07.

B42: Phage-1173 (peptide)
peptide: LCAAGAYYPWPLCF
With B42, the “Anti-CD28 Fab signal” value in experiment [1] turned out to be 1.28. For the same molecule, the “Anti-CD28 Fab signal … of CD28” value in experiment [2] stood at 0.06.

B43: Phage-1177 (peptide)
peptide: SCAAGATYSWPACL
For B43, the “Anti-CD28 Fab signal” value in experiment [1] was determined as 1.25. Besides, the “Anti-CD28 Fab signal … of CD28” value in experiment [2] is 0.07.

B44: Phage-1120 (peptide)
peptide: TCSAGATYMWPACF
Regarding B44, the “Anti-CD28 Fab signal” value in experiment [1] was found to be 1.44. The “Anti-CD28 Fab signal … of CD28” value in experiment [2] was determined as 0.1.

B45: Phage-1121 (peptide)
peptide: TCSAGATYAWPACF
Turning to B45, the “Anti-CD28 Fab signal” value in experiment [1] was 1.44. Besides, the “Anti-CD28 Fab signal … of CD28” value in experiment [2] was 0.08.

B46: Phage-1172 (peptide)
peptide: TCSAGATYKWPACF
Consider B46, for which the “Anti-CD28 Fab signal” value in experiment [1] is 1.29. Also, the “Anti-CD28 Fab signal … of CD28” value in experiment [2] turned out to be 0.05.

B47: Phage-1188 (peptide)
peptide: LCAAGATYPWPDCV
Consider B47, for which the “Anti-CD28 Fab signal” value in experiment [1] stood at 1.21. In addition, in experiment [2], the “Anti-CD28 Fab signal … of CD28” value is 0.05.

B48: Phage-1167 (peptide)
peptide: LCAAGAAWEWPMCF
Take B48: the “Anti-CD28 Fab signal” value in experiment [1] was 1.3. In addition, the “Anti-CD28 Fab signal … of CD28” value in experiment [2] amounted to 0.06.
